From the RNAGym collection of RNA variant scans (doi:10.1073/pnas.2313332121)
Variants at the floor of the assay were thinned out.

B1: TPR 5TU (parent)
chain: GGAUCUUCUCGAUCUAACAAAAAAGACAAAUCUGCCACAAAGCUUGAGAGCAUCUUCGGAUGCAGAGGCGGCAGCCUUCGGUGGCGCGAUAGCGCCAACGUUCUCAACUAUGACACGCAAAACGCGUGCUCCGUUGAAUGGAGUUUAUCAUG

Variants of: B1
Assay: polymerase ribozyme fitness, log enrichment relative to wild type (log ratio); higher = more active; in vitro selection for triplet polymerase activity
How it was run: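 A single round of triplicate in vitro selection, including frozen incubation at −7 °C, was applied to PCR-built, transcribed mutant libraries of each subunit of a heterodimeric triplet polymerase ribozyme. Illumina sequencing of input and output libraries retained genotypes with ≥10 input reads and ≥1 read per output. Fitness is the base-2 logarithm of genotype enrichment divided by wild-type enrichment, from inverse-variance-weighted replicate averages.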

Q: With C27G A37C U44A U45A C57U G68A G83A A119U A120U A147G as the variant, how does the “polymerase ribozyme fitness (log ratio)” value read?
A: The value was no more than -4.2.

Q: Which “polymerase ribozyme fitness (log ratio)” value does the source give for A26U U45A G83U G92C A122U here?
A: Its value is no more than -4.2.

Q: For A26U G48A, which “polymerase ribozyme fitness (log ratio)” value is on record?
A: Its value is -3.27.

Q: With C27U G34C C93A G117A as the variant, how does the “polymerase ribozyme fitness (log ratio)” value read?
A: The value was no more than -4.2.

Q: With A26G U33C C85U as the variant, how does the “polymerase ribozyme fitness (log ratio)” value read?
A: Its value is no more than -4.2.

Q: With C27U C57A A66C G71A C96A U130A as the variant, how does the “polymerase ribozyme fitness (log ratio)” value read?
A: Its value is no more than -4.2.

Q: For C27U A39C G50U C123A, which “polymerase ribozyme fitness (log ratio)” value is on record?
A: Its value is no more than -4.2.

Q: For A26G U77A C87U A89C, which “polymerase ribozyme fitness (log ratio)” value is on record?
A: The value was no more than -4.2.

Q: For A26U, which “polymerase ribozyme fitness (log ratio)” value is on record?
A: Its value is -1.21.

Q: For C27U U31C A52C U78C U101A C125G, which “polymerase ribozyme fitness (log ratio)” value is on record?
A: The value was no more than -4.2.

Q: For C27A A28U C38U A39U A47U, which “polymerase ribozyme fitness (log ratio)” value is on record?
A: The value was no more than -4.2.

Q: Which “polymerase ribozyme fitness (log ratio)” value does the source give for A26U A29C A47G A49U G59C G65A G117C U139G here?
A: The value was no more than -4.2.

Q: With A26U C54A U56G C75A C93A U134A as the variant, how does the “polymerase ribozyme fitness (log ratio)” value read?
A: Its value is no more than -4.2.

Q: With C27G U45A G48U A91C as the variant, how does the “polymerase ribozyme fitness (log ratio)” value read?
A: The value was no more than -4.2.

Q: Which “polymerase ribozyme fitness (log ratio)” value does the source give for A26U U61A G71C C79U A98G U151A here?
A: Its value is no more than -4.2.

Q: With C27G C72A C96A A107U as the variant, how does the “polymerase ribozyme fitness (log ratio)” value read?
A: Its value is no more than -4.2.

Q: For A26U A40C G68C G71U U82A A119C C125A A150C, which “polymerase ribozyme fitness (log ratio)” value is on record?
A: Its value is no more than -4.2.

Q: Which “polymerase ribozyme fitness (log ratio)” value does the source give for C27U C85A here?
A: Its value is -2.04.

Q: With C27U C85U as the variant, how does the “polymerase ribozyme fitness (log ratio)” value read?
A: The value was -2.83.

Q: Which “polymerase ribozyme fitness (log ratio)” value does the source give for C27U G62U A120C A122U here?
A: The value was -2.46.

Q: Which “polymerase ribozyme fitness (log ratio)” value does the source give for A26U G34U G59C G62A C75G C93G U104A G152A here?
A: The value was no more than -4.2.

Q: Which “polymerase ribozyme fitness (log ratio)” value does the source give for C27G C87A here?
A: The value was no more than -4.2.

Q: With C27G C87U as the variant, how does the “polymerase ribozyme fitness (log ratio)” value read?
A: The value was -3.97.

Q: With C27A G58U C95U C96A G124U as the variant, how does the “polymerase ribozyme fitness (log ratio)” value read?
A: The value was -4.08.

Q: With A26U C96U C116G as the variant, how does the “polymerase ribozyme fitness (log ratio)” value read?
A: Its value is -1.18.

Q: For C27G C125A, which “polymerase ribozyme fitness (log ratio)” value is on record?
A: Its value is -3.93.

Q: For C27U A28G U53G A73G C85U G86C A120U C132U, which “polymerase ribozyme fitness (log ratio)” value is on record?
A: Its value is no more than -4.2.

Q: For A26U C118A, which “polymerase ribozyme fitness (log ratio)” value is on record?
A: The value was -2.33.

Q: With A26U C118U as the variant, how does the “polymerase ribozyme fitness (log ratio)” value read?
A: Its value is -0.616.

Q: Which “polymerase ribozyme fitness (log ratio)” value does the source give for C27G A39C G59C C85G C105G here?
A: The value was no more than -4.2.

Q: For C27A C85U C96A C114U A119G G140C, which “polymerase ribozyme fitness (log ratio)” value is on record?
A: The value was -4.07.

Q: With A26U U104C G126C U146A as the variant, how does the “polymerase ribozyme fitness (log ratio)” value read?
A: Its value is -2.67.

Q: With C27U C32G C36U C87G as the variant, how does the “polymerase ribozyme fitness (log ratio)” value read?
A: Its value is no more than -4.2.

Q: Which “polymerase ribozyme fitness (log ratio)” value does the source give for C27U G62A A97U A98C here?
A: Its value is -3.33.

Q: Which “polymerase ribozyme fitness (log ratio)” value does the source give for C27G U53A U102A here?
A: The value was no more than -4.2.

Q: With A26U G92C as the variant, how does the “polymerase ribozyme fitness (log ratio)” value read?
A: Its value is -3.52.

Q: Which “polymerase ribozyme fitness (log ratio)” value does the source give for C27A U90G A107U here?
A: The value was no more than -4.2.

Q: Which “polymerase ribozyme fitness (log ratio)” value does the source give for A26U C43U U53A G100C here?
A: The value was no more than -4.2.

Q: With A26G C32A A39C C54A A150G as the variant, how does the “polymerase ribozyme fitness (log ratio)” value read?
A: Its value is no more than -4.2.

Q: Which “polymerase ribozyme fitness (log ratio)” value does the source give for C27G G50A here?
A: Its value is -3.72.

Q: Which “polymerase ribozyme fitness (log ratio)” value does the source give for C27A U33C G88C G141C here?
A: Its value is no more than -4.2.

Q: With A26U C51U C72U A73U C85A C99G G100C U111G as the variant, how does the “polymerase ribozyme fitness (log ratio)” value read?
A: Its value is no more than -4.2.

Q: Which “polymerase ribozyme fitness (log ratio)” value does the source give for A26U C96U here?
A: Its value is -1.62.

Q: For C27U G94A, which “polymerase ribozyme fitness (log ratio)” value is on record?
A: The value was -2.73.

Q: With C27U G86U C99G as the variant, how does the “polymerase ribozyme fitness (log ratio)” value read?
A: Its value is no more than -4.2.

Q: For C27U G58C U139C, which “polymerase ribozyme fitness (log ratio)” value is on record?
A: The value was no more than -4.2.

Q: With A26U G46U G58A A73U C85G U111G A150U as the variant, how does the “polymerase ribozyme fitness (log ratio)” value read?
A: The value was no more than -4.2.

Q: For C27U A47C, which “polymerase ribozyme fitness (log ratio)” value is on record?
A: The value was -1.01.

Q: With C27G C51U G80C G86U as the variant, how does the “polymerase ribozyme fitness (log ratio)” value read?
A: Its value is no more than -4.2.

Q: For C27U A39G A40C C69A U77C G94U C95A C116U G140U, which “polymerase ribozyme fitness (log ratio)” value is on record?
A: The value was no more than -4.2.

Q: With A26U A49G C57A G88U G92A G100A A106U C125U as the variant, how does the “polymerase ribozyme fitness (log ratio)” value read?
A: The value was no more than -4.2.

Q: Which “polymerase ribozyme fitness (log ratio)” value does the source give for A26U A91G G140C C149A here?
A: The value was no more than -4.2.

Q: With C27U U53A U61A C69G G88C as the variant, how does the “polymerase ribozyme fitness (log ratio)” value read?
A: Its value is no more than -4.2.

Q: For C27A U55A G71A U77C C95U A113C C149G, which “polymerase ribozyme fitness (log ratio)” value is on record?
A: Its value is no more than -4.2.

Q: Which “polymerase ribozyme fitness (log ratio)” value does the source give for A26G C38A A60U A64C C76U here?
A: Its value is no more than -4.2.

Q: For C27G A39U G74A C87G U102G, which “polymerase ribozyme fitness (log ratio)” value is on record?
A: Its value is no more than -4.2.

Q: Which “polymerase ribozyme fitness (log ratio)” value does the source give for C27A G34U U53A G71C G88U C96U U144A U146A here?
A: The value was no more than -4.2.

Q: Which “polymerase ribozyme fitness (log ratio)” value does the source give for C27G A52G G92A here?
A: Its value is no more than -4.2.

Q: For C27U, which “polymerase ribozyme fitness (log ratio)” value is on record?
A: The value was -1.13.

Q: For C27G, which “polymerase ribozyme fitness (log ratio)” value is on record?
A: The value was -3.12.

Q: For C27A, which “polymerase ribozyme fitness (log ratio)” value is on record?
A: Its value is -2.95.

Q: For A26G A89U, which “polymerase ribozyme fitness (log ratio)” value is on record?
A: Its value is -4.16.

Q: For C27U A29C G58C C85A U145A, which “polymerase ribozyme fitness (log ratio)” value is on record?
A: The value was no more than -4.2.

Q: For C27A A28C C57G C76A A91C, which “polymerase ribozyme fitness (log ratio)” value is on record?
A: The value was no more than -4.2.

Q: Which “polymerase ribozyme fitness (log ratio)” value does the source give for A26G U78C here?
A: Its value is -3.95.

Q: Which “polymerase ribozyme fitness (log ratio)” value does the source give for A26G C72U U78G C85G here?
A: The value was no more than -4.2.

Q: For C27U A97G C131A U151C, which “polymerase ribozyme fitness (log ratio)” value is on record?
A: Its value is no more than -4.2.

Q: For A26U A49G C95U, which “polymerase ribozyme fitness (log ratio)” value is on record?
A: The value was -3.28.

Q: Which “polymerase ribozyme fitness (log ratio)” value does the source give for A26U C51U C114U C129U here?
A: Its value is no more than -4.2.

Q: For A26U C72G G81A G86C, which “polymerase ribozyme fitness (log ratio)” value is on record?
A: Its value is no more than -4.2.

Q: With C27A A28U A39C C54G C96A as the variant, how does the “polymerase ribozyme fitness (log ratio)” value read?
A: Its value is no more than -4.2.

Q: With A26U U148A as the variant, how does the “polymerase ribozyme fitness (log ratio)” value read?
A: The value was -4.11.

Q: For C27U A37C A52C C87U G88C, which “polymerase ribozyme fitness (log ratio)” value is on record?
A: The value was no more than -4.2.

Q: Which “polymerase ribozyme fitness (log ratio)” value does the source give for A26G A49G C57U G59A C72A here?
A: Its value is no more than -4.2.

Q: For C27U G46A C75A A91U G94A, which “polymerase ribozyme fitness (log ratio)” value is on record?
A: The value was no more than -4.2.

Q: Which “polymerase ribozyme fitness (log ratio)” value does the source give for C27A C38G C43U C85U G133A U144C here?
A: The value was no more than -4.2.

Q: Which “polymerase ribozyme fitness (log ratio)” value does the source give for C27U C95U U102A here?
A: The value was -2.66.

Q: Which “polymerase ribozyme fitness (log ratio)” value does the source give for C27A A106C A113U C125A here?
A: Its value is no more than -4.2.

Q: For A26U A41C G71U C95A, which “polymerase ribozyme fitness (log ratio)” value is on record?
A: Its value is no more than -4.2.

Q: With C27U C43A A97U A150G as the variant, how does the “polymerase ribozyme fitness (log ratio)” value read?
A: The value was no more than -4.2.

Q: For C27A G46A U53A U56G A91C A106C A110G A138G, which “polymerase ribozyme fitness (log ratio)” value is on record?
A: Its value is no more than -4.2.

Q: For C27U C57A C95U, which “polymerase ribozyme fitness (log ratio)” value is on record?
A: Its value is -2.1.

Q: Which “polymerase ribozyme fitness (log ratio)” value does the source give for A26U C85U C105U A142C here?
A: The value was -3.69.

Q: With C27A U55G A66U C72U U78G C79U A91C C105U as the variant, how does the “polymerase ribozyme fitness (log ratio)” value read?
A: The value was no more than -4.2.
